For data set [1], the target named is OGT (UniProt O15294). Kind of data set: co-IP in H1299 cells. The note with it: reference: YTHDF2 wild type; sites S39.
The conditions of data set [2]: O-GlcNAc at T49.
For data set [3], the target named is OGT (UniProt O15294). Description: co-IP of HA-YTHDF2 and Myc-OGT. The note with it: reference: HA-YTHDF2 wild type; sites S39.
Data set [4] in a line: CHX pulse-chase, protein remaining, HEK-293T. Conditions: glycan lost; control: HA-YTHDF2-WT.
Data set [5] is described as follows: anti-ubiquitin blot, H1299. The note with it: glycan lost; control: HA-YTHDF2-WT.
The nature of data set [6]: CHX pulse-chase, protein remaining, H1299. The note with it: glycan lost; control: HA-YTHDF2-WT.
Data set [7] in a line: anti-HA IP, anti-ubiquitin blot, 293T, MG132. The note with it: glycan lost; control: HA-YTHDF2-WT.
A short description of another data set: anti-pS39 blot, H1299. The note with it: glycan lost; control: HA-YTHDF2-WT.
The nature of data set [8]: anti-HA IP, anti-pS39 blot, 293T.

In the case of “YTHDF2 (from UniProt Q9Y5A9) YTHDF2-S39A”, the “binding against the reference” value in the data set with OGT [1] is listed as “stronger”.

As for YTHDF2: Flag-OGA overexpression, in data set [2], the other result was “decreases, YTHDF2 ubiquitination, Ub/HA ratio ~0.5 vs 1.0 without OGA (read from plot, P < 0.05)”.

Take “YTHDF2 (from UniProt Q9Y5A9) HA-YTHDF2-S39A”: the “binding against the reference” value with OGT [3] is given as “stronger”.

Consider “YTHDF2: TMG plus glucose (OGA inhibition, raises O-GlcNAcylation)”, for which the other entry in data set [2] is recorded as “decreases”.

On to YTHDF2: OGA overexpression, for which, in [2], the other result is recorded as “decreases”.

B1: YTHDF2: T49A (protein)
parent chain: MSASSLLEQRPKGQGNKVQNGSVHQKDGLNDDDFEPYLSPQARPNNAYTAMSDSYLPSYYSPSIGFSYSLGEAAWSTGGDTAMPYLTSYGQLSNGEPHFLPDAMFGQPGALGSTPFLGQHGFNFFPSGIDFSAWGNNSSQGQSTQSSGYSSNYAYAPSSLGGAMIDGQSAFANETLNKAPGMNTIDQGMAALKLGSTEVASNVPKVVGSAVGSGSITSNIVASNSLPPATIAPPKPASWADIASKPAKQQPKLKTKNGIAGSSLPPPPIKHNMDIGTWDNKGPVAKAPSQALVQNIGQPTQGSPQPVGQQANNSPPVAQASVGQQTQPLPPPPPQPAQLSVQQQAAQPTRWVAPRNRGSGFGHNGVDGNGVGQSQAGSGSTPSEPHPVLEKLRSINNYNPKDFDWNLKHGRVFIIKSYSEDDIHRSIKYNIWCSTEHGNKRLDAAYRSMNGKGPVYLLFSVNGSGHFCGVAEMKSAVDYNTCAGVWSQDKWKGRFDVRWIFVKDVPNSQLRHIRLENNENKPVTNSRDTQEVPLEKAKQVLKIIASYKHTTSIFDDFSHYEKRQEEEESVKKERQGRGK
Take B1: the degradation_or_half_life result in data set [4] and in data set [6] was “increases” in each case. The “other: ubiquitination” value in [5] and in [7] was “decreases” throughout. The “other: Ser-39 phosphorylation” value in the data set “anti-pS39 blot, H1299” is “increases”; in [8] (glycan lost, control: HA-YTHDF2-WT), “increases”.

B2: YTHDF2: TMG plus glucose (protein)
parent chain: MSASSLLEQRPKGQGNKVQNGSVHQKDGLNDDDFEPYLSPQARPNNAYTAMSDSYLPSYYSPSIGFSYSLGEAAWSTGGDTAMPYLTSYGQLSNGEPHFLPDAMFGQPGALGSTPFLGQHGFNFFPSGIDFSAWGNNSSQGQSTQSSGYSSNYAYAPSSLGGAMIDGQSAFANETLNKAPGMNTIDQGMAALKLGSTEVASNVPKVVGSAVGSGSITSNIVASNSLPPATIAPPKPASWADIASKPAKQQPKLKTKNGIAGSSLPPPPIKHNMDIGTWDNKGPVAKAPSQALVQNIGQPTQGSPQPVGQQANNSPPVAQASVGQQTQPLPPPPPQPAQLSVQQQAAQPTRWVAPRNRGSGFGHNGVDGNGVGQSQAGSGSTPSEPHPVLEKLRSINNYNPKDFDWNLKHGRVFIIKSYSEDDIHRSIKYNIWCSTEHGNKRLDAAYRSMNGKGPVYLLFSVNGSGHFCGVAEMKSAVDYNTCAGVWSQDKWKGRFDVRWIFVKDVPNSQLRHIRLENNENKPVTNSRDTQEVPLEKAKQVLKIIASYKHTTSIFDDFSHYEKRQEEEESVKKERQGRGK
B2: the “other: Ser-39 phosphorylation” value in [8] (glycan gained, control: untreated cells) is reported as “decreases”.

The values above are taken from article PMC12848141.
